First the molecules themselves.
B1: Microsomal triglyceride transfer protein large subunit (Homo sapiens), P55157 (parent)
chain: MILLAVLFLCFISSYSASVKGHTTGLSLNNDRLYKLTYSTEVLLDRGKGKLQDSVGYRISSNVDVALLWRNPDGDDDQLIQITMKDVNVENVNQQRGEKSIFKGKSPSKIMGKENLEALQRPTLLHLIHGKVKEFYSYQNEAVAIENIKRGLASLFQTQLSSGTTNEVDISGNCKVTYQAHQDKVIKIKALDSCKIARSGFTTPNQVLGVSSKATSVTTYKIEDSFVIAVLAEETHNFGLNFLQTIKGKIVSKQKLELKTTEAGPRLMSGKQAAAIIKAVDSKYTAIPIVGQVFQSHCKGCPSLSELWRSTRKYLQPDNLSKAEAVRNFLAFIQHLRTAKKEEILQILKMENKEVLPQLVDAVTSAQTSDSLEAILDFLDFKSDSSIILQERFLYACGFASHPNEELLRALISKFKGSIGSSDIRETVMIITGTLVRKLCQNEGCKLKAVVEAKKLILGGLEKAEKKEDTRMYLLALKNALLPEGIPSLLKYAEAGEGPISHLATTALQRYDLPFITDEVKKTLNRIYHQNRKVHEKTVRTAAAAIILNNNPSYMDVKNILLSIGELPQEMNKYMLAIVQDILRFEMPASKIVRRVLKEMVAHNYDRFSRSGSSSAYTGYIERSPRSASTYSLDILYSGSGILRRSNLNIFQYIGKAGLHGSQVVIEAQGLEALIAATPDEGEENLDSYAGMSAILFDVQLRPVTFFNGYSDLMSKMLSASGDPISVVKGLILLIDHSQELQLQSGLKANIEVQGGLAIDISGAMEFSLWYRESKTRVKNRVTVVITTDITVDSSFVKAGLETSTETEAGLEFISTVQFSQYPFLVCMQMDKDEAPFRQFEKKYERLSTGRGYVSQKRKESVLAGCEFPLHQENSEMCKVVFAPQPDSTSSGWF
B2: Microsomal triglyceride transfer protein large subunit (Homo sapiens), P55157 (parent)
chain: B1 chain
partner: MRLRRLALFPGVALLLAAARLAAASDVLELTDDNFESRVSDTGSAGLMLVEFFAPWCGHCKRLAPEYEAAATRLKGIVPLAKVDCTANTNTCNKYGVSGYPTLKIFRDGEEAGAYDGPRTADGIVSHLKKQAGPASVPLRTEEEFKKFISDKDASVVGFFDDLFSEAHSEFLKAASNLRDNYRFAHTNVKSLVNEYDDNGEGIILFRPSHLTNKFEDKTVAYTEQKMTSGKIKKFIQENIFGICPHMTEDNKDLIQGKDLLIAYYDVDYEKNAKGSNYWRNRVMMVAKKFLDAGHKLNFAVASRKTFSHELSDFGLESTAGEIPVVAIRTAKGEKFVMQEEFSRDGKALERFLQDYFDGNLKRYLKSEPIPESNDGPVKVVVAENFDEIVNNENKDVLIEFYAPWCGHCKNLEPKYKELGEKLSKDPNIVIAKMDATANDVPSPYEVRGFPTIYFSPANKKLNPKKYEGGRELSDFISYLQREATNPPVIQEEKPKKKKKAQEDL

Variants of B1 are the subject of one experiment. To be noted: with apob_human APOB.
D361Y: the “effect of a mutation on the interaction” value is “with no effect”.

D361E: the “effect of a mutation on the interaction” value is on record as “with no effect”.

In a further experiment the parent is B1. To be noted: with apob_human APOB. This is another data set of the same source.
As for D361E, the “effect of a mutation on the interaction” value is recorded as “increasing interaction strength”.

The variants in the next experiment derive from B2. To be noted: with pdia3_chlae PDIA3, Q4VIT4.
Turning to D361E, the “effect of a mutation on the interaction” value is reported as “with no effect”.

Take D361Y: the “effect of a mutation on the interaction” value is reported as “decreasing interaction strength”.

The next experiment covers variants of B2. The following applies: with pdia3_chlae PDIA3, Q4VIT4. This is another data set of the same source.
For the variant D361Y, the “effect of a mutation on the interaction” value is “disrupting interaction strength”.

The record behind these values is IntAct's records for PubMed 27487388.
